Experimental findings from paper PMC4947163, “RNA polymerase I–Rrn3 complex at 4.8 Å resolution” (Nature Communications, 2016) are described below.

The chains are these.
T1: Pol I subunit A135 (S. cerevisiae, UniProt P22138 1-1203)
T1 construct: Pol I subunit A135, S. cerevisiae; Stood in the assay as a subunit of the whole Pol I; source: endogenous, purified from yeast as part of Pol I
T1 sequence (looked up): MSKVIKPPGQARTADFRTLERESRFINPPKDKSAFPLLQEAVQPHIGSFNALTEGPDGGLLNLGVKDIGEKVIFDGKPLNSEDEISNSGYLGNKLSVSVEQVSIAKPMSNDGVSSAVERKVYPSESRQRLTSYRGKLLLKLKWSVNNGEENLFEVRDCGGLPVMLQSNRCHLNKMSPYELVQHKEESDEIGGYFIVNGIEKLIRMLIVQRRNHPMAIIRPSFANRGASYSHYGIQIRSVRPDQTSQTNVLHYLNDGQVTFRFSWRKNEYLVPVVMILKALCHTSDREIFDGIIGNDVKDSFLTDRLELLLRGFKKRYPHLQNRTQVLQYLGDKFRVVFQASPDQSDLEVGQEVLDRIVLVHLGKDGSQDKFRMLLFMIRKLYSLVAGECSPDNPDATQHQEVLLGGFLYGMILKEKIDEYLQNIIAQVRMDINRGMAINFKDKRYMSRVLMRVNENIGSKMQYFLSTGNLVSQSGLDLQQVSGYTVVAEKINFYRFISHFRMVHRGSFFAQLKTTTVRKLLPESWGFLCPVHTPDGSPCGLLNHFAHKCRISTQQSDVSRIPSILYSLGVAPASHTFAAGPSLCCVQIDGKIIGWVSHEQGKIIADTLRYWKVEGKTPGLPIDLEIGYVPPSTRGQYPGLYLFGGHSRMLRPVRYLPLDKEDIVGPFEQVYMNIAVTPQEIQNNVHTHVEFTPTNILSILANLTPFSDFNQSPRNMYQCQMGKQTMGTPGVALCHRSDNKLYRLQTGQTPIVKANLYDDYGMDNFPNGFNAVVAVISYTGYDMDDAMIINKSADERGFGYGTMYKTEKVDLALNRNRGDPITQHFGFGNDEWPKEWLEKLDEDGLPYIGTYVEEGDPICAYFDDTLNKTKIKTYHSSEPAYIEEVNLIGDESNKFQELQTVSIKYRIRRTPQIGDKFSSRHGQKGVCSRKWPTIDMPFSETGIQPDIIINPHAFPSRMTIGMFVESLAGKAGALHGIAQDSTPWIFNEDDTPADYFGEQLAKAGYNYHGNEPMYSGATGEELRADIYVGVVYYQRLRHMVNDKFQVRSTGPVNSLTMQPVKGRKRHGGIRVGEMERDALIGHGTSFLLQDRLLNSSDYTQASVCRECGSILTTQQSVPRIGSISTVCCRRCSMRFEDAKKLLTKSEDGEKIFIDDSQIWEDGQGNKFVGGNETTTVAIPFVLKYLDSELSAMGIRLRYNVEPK

T2: Pol I subunit A49 (S. cerevisiae, UniProt Q01080 1-415)
T2 construct: Pol I subunit A49, S. cerevisiae; Stood in the assay as a subunit of the whole Pol I; source: endogenous, purified from yeast as part of Pol I
T2 sequence (looked up): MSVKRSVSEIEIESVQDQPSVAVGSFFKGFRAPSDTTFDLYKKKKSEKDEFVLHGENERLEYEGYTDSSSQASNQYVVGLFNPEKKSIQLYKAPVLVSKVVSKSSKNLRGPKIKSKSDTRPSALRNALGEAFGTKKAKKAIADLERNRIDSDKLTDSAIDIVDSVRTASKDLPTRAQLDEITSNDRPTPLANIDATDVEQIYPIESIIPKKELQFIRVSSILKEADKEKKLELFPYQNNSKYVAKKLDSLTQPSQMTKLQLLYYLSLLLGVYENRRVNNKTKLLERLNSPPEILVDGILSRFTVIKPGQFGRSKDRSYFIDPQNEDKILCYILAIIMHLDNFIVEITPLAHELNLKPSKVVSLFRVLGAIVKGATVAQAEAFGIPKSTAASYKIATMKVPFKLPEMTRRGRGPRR

B1: Rrn3 (natural protein, S. cerevisiae)
chain: MMAFENTSKRPPQDFVAPIDQKKRKVQFSDSTGLVTLQPEEIKDEVFSAAMYSRFVKSALDDLDKNDSTQIGIIANQVALPSKNPERINDKNLNILLDILSSNINRIESSRGTFLIQSIINFEKWWELPPHTLSKYIYFIKILCSSIPKWWQDVSMILVSCFILPIKQTVCHHDMLKYFLRMIPSSMGFIDTYLAKFFPNKNDTRRKLVNYTSNLLKLRGYCSELGFQIWSLLIEKIISIDVELQNELDELDDDVDDDDLEEVDLEDDDDLDDDSGDDDDENCGNSNEELRSGAADGSQSDSEDMDIIEGMDGTEEYNVELTQGIKELSTKLDSILTLVSTHVEEQVTPESLESGEGVGVFNTLTTLFKTHVLPTYYTRSIQYIMFHVSQQQLELMDSFLVTLIDISFAVNEAAEKKIKSLQYLGSYIARAKKLSRTQIIFVASYLTSWLNRYVIEREEEVDQRGGMERFKHFYAAFQALCYIFCFRHNIFRDTDGNWECELDKFFQRMVISKFNPLKFCNENVMLMFARIAQQESVAYCFSIIENNNNERLRGIIGKADSDKKENSAQANTTSSSWSLATRQQFIDLQSYFPYDPLFLKNYKILMKEYYIEWSEASGEYESDGSDD
notes: Rrn3, Pol I-specific initiation factor, S. cerevisiae; also called Pol I-specific initiation factor Rrn3
B2: Pol I subunit AC19 (natural protein, S. cerevisiae, UniProt P28000 1-142, looked up)
chain: MTEDIEQKKTATEVTPQEPKHIQEEEEQDVDMTGDEEQEEEPDREKIKLLTQATSEDGTSASFQIVEEDHTLGNALRYVIMKNPDVEFCGYSIPHPSENLLNIRIQTYGETTAVDALQKGLKDLMDLCDVVESKFTEKIKSM
notes: Pol I subunit AC19, S. cerevisiae; Stood in the assay as a subunit of the whole Pol I; source: endogenous, purified from yeast as part of Pol I
B3: Pol I subunit AC40 (natural protein, S. cerevisiae, UniProt P07703 1-335, looked up)
chain: MSNIVGIEYNRVTNTTSTDFPGFSKDAENEWNVEKFKKDFEVNISSLDAREANFDLINIDTSIANAFRRIMISEVPSVAAEYVYFFNNTSVIQDEVLAHRIGLVPLKVDPDMLTWVDSNLPDDEKFTDENTIVLSLNVKCTRNPDAPKGSTDPKELYNNAHVYARDLKFEPQGRQSTTFADCPVVPADPDILLAKLRPGQEISLKAHCILGIGGDHAKFSPVSTASYRLLPQINILQPIKGESARRFQKCFPPGVIGIDEGSDEAYVKDARKDTVSREVLRYEEFADKVKLGRVRNHFIFNVESAGAMTPEEIFFKSVRILKNKAEYLKNCPITQ
notes: Pol I subunit AC40, S. cerevisiae; Stood in the assay as a subunit of the whole Pol I; source: endogenous, purified from yeast as part of Pol I
B4: Pol I subunit A34.5 (natural protein, S. cerevisiae, UniProt P47006 1-233, looked up)
chain: MSKLSKDYVSDSDSDDEVISNEFSIPDGFKKCKHLKNFPLNGDNKKKAKQQQVWLIKFPSNVDISKLKSLPVDFESSTTMTIDKHDYKIMDDTDIESSLTQDNLSNMTLLVPSESKESLKIASTAKDNAPLQFDKVFSVSETAKIPAIDYSKVRVPRKDVPKVEGLKLEHFATGYDAEDFHVAEEVKENKKEPKKRSHHDDEEESSEKKKKKKEKREKREKKDKKDKKKKHRD
notes: Pol I subunit A34.5, S. cerevisiae; Stood in the assay as a subunit of the whole Pol I; source: endogenous, purified from yeast as part of Pol I

What all share (test): cryo-EM structure; Pol I incubated with fivefold excess of Rrn3 and CF overnight at 4 °C, SEC in buffer A (150 mM sodium chloride, 5 mM HEPES pH 7.8, 1 mM magnesium chloride, 10 μM zinc chloride, 5 mM dithiothreitol), crosslinked with 1 mM BS3; single-particle reconstruction at 4.8 Å from 63,445 particles; crystal structures fitted as rigid bodies
Common to all, as to conditions: both partners purified

Test [1] deals with T1, Pol I subunit A135.
Test [2] addresses T3, Pol I subunit A190 (S. cerevisiae, UniProt P10964 1-1664).
T3 construct: Pol I subunit A190, S. cerevisiae; Stood in the assay as a subunit of the whole Pol I; source: endogenous, purified from yeast as part of Pol I

In test [3] the target is B1.
Test [4] has as its target B3.
The target in test [5] is T2, Pol I subunit A49.

T3 sequence (P10964 whole entry): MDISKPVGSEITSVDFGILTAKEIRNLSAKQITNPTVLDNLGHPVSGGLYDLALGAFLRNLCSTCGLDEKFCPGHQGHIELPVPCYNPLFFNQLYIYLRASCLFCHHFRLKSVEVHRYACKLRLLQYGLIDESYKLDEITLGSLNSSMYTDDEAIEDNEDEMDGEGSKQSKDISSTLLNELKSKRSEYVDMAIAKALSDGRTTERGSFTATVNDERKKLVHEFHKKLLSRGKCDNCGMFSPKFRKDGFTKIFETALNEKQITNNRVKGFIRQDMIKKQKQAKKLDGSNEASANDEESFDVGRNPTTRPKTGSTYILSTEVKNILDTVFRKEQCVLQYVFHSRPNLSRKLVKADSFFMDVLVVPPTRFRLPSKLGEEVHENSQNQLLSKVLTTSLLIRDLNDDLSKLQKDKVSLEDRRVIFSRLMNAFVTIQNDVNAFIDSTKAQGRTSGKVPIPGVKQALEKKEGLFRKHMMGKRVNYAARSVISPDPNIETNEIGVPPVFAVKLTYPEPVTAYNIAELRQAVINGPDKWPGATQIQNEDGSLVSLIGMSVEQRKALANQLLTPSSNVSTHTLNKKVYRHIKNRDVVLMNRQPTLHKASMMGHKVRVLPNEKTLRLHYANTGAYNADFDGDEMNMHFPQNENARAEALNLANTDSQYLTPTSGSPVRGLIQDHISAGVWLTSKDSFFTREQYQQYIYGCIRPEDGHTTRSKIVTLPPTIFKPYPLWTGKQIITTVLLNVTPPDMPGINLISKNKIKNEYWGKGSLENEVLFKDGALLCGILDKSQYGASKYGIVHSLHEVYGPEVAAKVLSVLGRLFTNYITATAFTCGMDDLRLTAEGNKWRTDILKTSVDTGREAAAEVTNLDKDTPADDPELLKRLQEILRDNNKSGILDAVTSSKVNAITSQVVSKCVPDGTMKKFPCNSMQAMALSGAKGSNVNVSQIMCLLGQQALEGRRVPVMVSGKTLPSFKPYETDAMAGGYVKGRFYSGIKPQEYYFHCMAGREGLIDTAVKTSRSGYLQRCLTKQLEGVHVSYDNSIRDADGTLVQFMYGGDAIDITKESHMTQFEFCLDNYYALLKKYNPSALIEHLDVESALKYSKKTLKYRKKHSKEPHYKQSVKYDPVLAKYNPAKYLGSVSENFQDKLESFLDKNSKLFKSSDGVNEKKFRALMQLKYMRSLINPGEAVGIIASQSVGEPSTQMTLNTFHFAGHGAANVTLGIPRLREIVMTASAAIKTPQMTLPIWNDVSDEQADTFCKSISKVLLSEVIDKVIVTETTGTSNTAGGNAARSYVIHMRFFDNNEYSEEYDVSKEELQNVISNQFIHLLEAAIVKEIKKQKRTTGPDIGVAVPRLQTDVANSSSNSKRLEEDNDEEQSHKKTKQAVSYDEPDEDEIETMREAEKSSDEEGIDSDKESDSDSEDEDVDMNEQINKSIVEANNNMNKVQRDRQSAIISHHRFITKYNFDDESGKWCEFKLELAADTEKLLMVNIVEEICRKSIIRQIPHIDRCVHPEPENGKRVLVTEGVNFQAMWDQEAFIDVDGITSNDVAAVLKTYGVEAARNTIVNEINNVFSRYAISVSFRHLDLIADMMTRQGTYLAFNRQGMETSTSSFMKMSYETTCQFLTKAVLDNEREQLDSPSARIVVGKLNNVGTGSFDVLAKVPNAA

B1: the binding result in test [1] and in test [2] was “binds” in each case. For B2, the binding result in test [3] and in test [4] was “binds” in each case.

Take B3: in test [3], the binding result is listed as “binds”. As to B4, in test [5], the binding result was “binds”.
